{"source": "the supplement of paper PMC6755084", "parents": {"B1": {"name": "F1*; the commonest letter at each place (parent)", "chain": "GAGACCGCAACTGAAAAGTTGTTATCACTTGTCGTAAGACACTTTGGATGGGTTGAAGTTCTGCACGTAGAAGCAAAAGGC"}}}
{"variants_of": "B1", "assay": "fraction ligated after 30 min (ligated reads / total reads); higher = more ligase activity", "conditions": "with F1*sub RNA substrate (template-directed ligation), 42 °C", "procedure": "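Chip-synthesised pool of F1* ligase ribozyme variants (all single and double substitutions, single, double and triple deletions in the catalytic core and GAA bulge, plus designed variants) was transcribed with T7 and reacted as a pool with excess substrate F1*sub for 30 min at 42 C in 50 mM EPPS pH 8.5, 25 mM MgCl2. Ligated and unligated bands were separated by PAGE, barcoded by RT and deep sequenced; fraction ligated = ligated reads / total reads per variant, relative activity = FL / FL of wild type (0.826). Sequences are the DNA template of the ribozyme.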"}
{"variant": "GAGACCGCAACTGAAAAGTTGTAATCACTTGTAGTAAGACACTTTGGATGGGTTGAAGTTCTGCACGTAGAAGCAAAAGGC", "fraction ligated": 0.855}
{"variant": "GAGACCGCAACTGAAAAGTTGTAATCACTTGTGGTAAGACACTTTGGATGGGTTGAAGTTCTGCACGTAGAAGCAAAAGGC", "fraction ligated": 0.838}
{"variant": "GAGACCGCAACTGAAAAGTTGCTATCACTTGTCGTAAGACACTTTGGATGGGTTGAAGTTCTGCACGTAGAAGCAAAAGGC", "fraction ligated": 0.819}
{"variant": "GAGACCGCAACTGAAAAGTTGTAATCACTTGTCGTAAGACACTTTGGATGGGTTGTAGTTCTGCACGTAGAAGCAAAAGGC", "fraction ligated": 0.754}
{"variant": "GAGACCGCAACTGAAAAGTTGTAATCACTTGTCGTAAGACACTTTGGATGGGTTGGAGTTCTGCACGTAGAAGCAAAAGGC", "fraction ligated": 0.686}
{"variant": "GAGACCGCAACTGAAAAGTTGTAATCACTTGTCGTAAGACACTTTGGATGGGTTGCAGTTCTGCACGTAGAAGCAAAAGGC", "fraction ligated": 0.653}
{"variant": "GAGACCGCAACTGAAAAGTTGTAATCACTTGTCGTAAGACCCTTTGGATGGGTTGAAGTTCTGCACGTAGAAGCAAAAGGC", "fraction ligated": 0.757}
{"variant": "GAGACCGCAACTGAAAAGTTGTAATCACTTGTCGTAAGACTCTTTGGATGGGTTGAAGTTCTGCACGTAGAAGCAAAAGGC", "fraction ligated": 0.807}
{"variant": "GAGACCGCAACTGAAAAGTTGTAATCACTTGTCGTAAGACGCTTTGGATGGGTTGAAGTTCTGCACGTAGAAGCAAAAGGC", "fraction ligated": 0.765}
{"variant": "GAGACCGCAACTGAAAAGTTGTAATCACTTGTCGTAAGACACTTTGGCTGGGTTGAAGTTCTGCACGTAGAAGCAAAAGGC", "fraction ligated": 0.727}
{"variant": "GAGACCGCAACTGAAAAGTTGTAATCACTTGTCGTAAGACACTTTGGGTGGGTTGAAGTTCTGCACGTAGAAGCAAAAGGC", "fraction ligated": 0.596}
{"variant": "GAGACCGCAACTGAAAAGTTGTAATCACTTGTCGTAAGACACTTTGGTTGGGTTGAAGTTCTGCACGTAGAAGCAAAAGGC", "fraction ligated": 0.68}
{"variant": "GAGACCGCAACTGAAAAGTTGTAATTACTTGTCGTAAGACACTTTGGATGGGTTGAAGTTCTGCACGTAGAAGCAAAAGGC", "fraction ligated": 0.794}
{"variant": "GAGACCGCAACTGAAAAGTTGTAATAACTTGTCGTAAGACACTTTGGATGGGTTGAAGTTCTGCACGTAGAAGCAAAAGGC", "fraction ligated": 0.318}
{"variant": "GAGACCGCAACTGAAAAGTTGTAATGACTTGTCGTAAGACACTTTGGATGGGTTGAAGTTCTGCACGTAGAAGCAAAAGGC", "fraction ligated": 0.116}
{"variant": "GAGACCGCAACTGAAAAGTTGTAATCAGTTGTCGTAAGACACTTTGGATGGGTTGAAGTTCTGCACGTAGAAGCAAAAGGC", "fraction ligated": 0.804}
{"variant": "GAGACCGCAACTGAAAAGTTGTAATCATTTGTCGTAAGACACTTTGGATGGGTTGAAGTTCTGCACGTAGAAGCAAAAGGC", "fraction ligated": 0.753}
{"variant": "GAGACCGCAACTGAAAAGTTGTAATCAATTGTCGTAAGACACTTTGGATGGGTTGAAGTTCTGCACGTAGAAGCAAAAGGC", "fraction ligated": 0.787}
{"variant": "GAGACCGCAACTGAAAAGTTGTAATCACTTGTCGTCAGACACTTTGGATGGGTTGAAGTTCTGCACGTAGAAGCAAAAGGC", "fraction ligated": 0.826}
{"variant": "GAGACCGCAACTGAAAAGTTGTAATCACTTGTCGTGAGACACTTTGGATGGGTTGAAGTTCTGCACGTAGAAGCAAAAGGC", "fraction ligated": 0.847}
{"variant": "GAGACCGCAACTGAAAAGTTGTAATCACTTGTCGTTAGACACTTTGGATGGGTTGAAGTTCTGCACGTAGAAGCAAAAGGC", "fraction ligated": 0.838}
{"variant": "GAGACCGCAACTGAAAAGTTGTAATCACTTGTCGTAAGACACTTTGGATGGGTTGAAGTTCTGCACGTAGAAGCAAAAGGC", "fraction ligated": 0.837}
{"variant": "GAGACCGCAACTGAAAAGTTGTAATCACTTGTCGTAAGCCACTTTGGATGGGTTGAAGTTCTGCACGTAGAAGCAAAAGGC", "fraction ligated": 0.789}
{"variant": "GAGACCGCAACTGAAAAGTTGTAATCACTTGTCGTAAGTCACTTTGGATGGGTTGAAGTTCTGCACGTAGAAGCAAAAGGC", "fraction ligated": 0.794}
{"variant": "GAGACCGCAACTGAAAAGTTGTAATCACTTGTCGTAAGGCACTTTGGATGGGTTGAAGTTCTGCACGTAGAAGCAAAAGGC", "fraction ligated": 0.819}
{"variant": "GAGACCGCAACTGAAAAGTTGTAATCACTTGTCGTACGACACTTTGGATGGGTTGAAGTTCTGCACGTAGAAGCAAAAGGC", "fraction ligated": 0.82}
{"variant": "GAGACCGCAACTGAAAAGTTGTAATCACTTGTCGTATGACACTTTGGATGGGTTGAAGTTCTGCACGTAGAAGCAAAAGGC", "fraction ligated": 0.811}
{"variant": "GAGACCGCAACTGAAAAGTTGTAATCACTTGTCGTAGGACACTTTGGATGGGTTGAAGTTCTGCACGTAGAAGCAAAAGGC", "fraction ligated": 0.84}
{"variant": "GAGACCGCAACTGAAAAGTTGTAATCACTTGTCGTAAGACACTTTGGATGGGTTGATGTTCTGCACGTAGAAGCAAAAGGC", "fraction ligated": 0.813}
{"variant": "GAGACCGCAACTGAAAAGTTGTAATCACTTGTCGTAAGACACTTTGGATGGGTTGAGGTTCTGCACGTAGAAGCAAAAGGC", "fraction ligated": 0.818}
{"variant": "GAGACCGCAACTGAAAAGTTGTAATCACTTGTCGTAAGACACTTTGGATGGGTTGACGTTCTGCACGTAGAAGCAAAAGGC", "fraction ligated": 0.805}
{"variant": "GAGACCGCAACTGAAAAGTTGTAGTCACTTGTCGTAAGACACTTTGGATGGGTTGAAGTTCTGCACGTAGAAGCAAAAGGC", "fraction ligated": 0.764}
{"variant": "GAGACCGCAACTGAAAAGTTGTACTCACTTGTCGTAAGACACTTTGGATGGGTTGAAGTTCTGCACGTAGAAGCAAAAGGC", "fraction ligated": 0.782}
{"variant": "GAGACCGCAACTGAAAAGTTGTATTCACTTGTCGTAAGACACTTTGGATGGGTTGAAGTTCTGCACGTAGAAGCAAAAGGC", "fraction ligated": 0.781}
